How the values were obtained:
goga2_human GOLGA2 = molecular target: T1, goga2_human GOLGA2 (UniProt Q08379)
T1 sequence: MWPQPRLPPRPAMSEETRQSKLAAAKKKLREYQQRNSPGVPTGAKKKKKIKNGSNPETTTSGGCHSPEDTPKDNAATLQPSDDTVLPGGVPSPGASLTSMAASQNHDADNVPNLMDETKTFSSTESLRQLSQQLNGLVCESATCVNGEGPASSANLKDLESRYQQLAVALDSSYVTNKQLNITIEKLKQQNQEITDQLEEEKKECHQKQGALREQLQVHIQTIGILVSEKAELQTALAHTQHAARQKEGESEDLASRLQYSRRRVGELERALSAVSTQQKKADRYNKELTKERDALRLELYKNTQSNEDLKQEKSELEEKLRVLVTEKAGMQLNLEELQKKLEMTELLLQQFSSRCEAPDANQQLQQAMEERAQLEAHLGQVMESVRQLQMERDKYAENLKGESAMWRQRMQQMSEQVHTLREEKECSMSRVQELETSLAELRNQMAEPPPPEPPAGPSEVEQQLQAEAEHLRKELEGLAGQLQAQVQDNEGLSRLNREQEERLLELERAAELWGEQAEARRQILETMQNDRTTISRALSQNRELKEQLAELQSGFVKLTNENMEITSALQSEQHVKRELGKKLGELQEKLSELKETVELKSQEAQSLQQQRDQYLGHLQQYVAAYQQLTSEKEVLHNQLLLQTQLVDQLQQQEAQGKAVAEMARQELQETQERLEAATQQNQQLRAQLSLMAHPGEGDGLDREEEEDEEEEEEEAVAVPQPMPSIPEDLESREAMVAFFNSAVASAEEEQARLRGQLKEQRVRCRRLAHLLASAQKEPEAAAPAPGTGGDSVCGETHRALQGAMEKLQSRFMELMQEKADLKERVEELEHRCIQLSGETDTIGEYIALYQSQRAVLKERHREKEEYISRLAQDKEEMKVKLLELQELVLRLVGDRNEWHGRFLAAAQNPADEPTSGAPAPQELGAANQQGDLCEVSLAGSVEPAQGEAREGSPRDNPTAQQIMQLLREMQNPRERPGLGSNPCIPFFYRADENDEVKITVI

reep6_human REEP6 = reep6_human REEP6 (UniProt Q96HR9)
ar6p1_human ARL6IP1 = ar6p1_human ARL6IP1 (UniProt Q15041)
txlna_human TXLNA = txlna_human TXLNA (UniProt P40222)
dpyl2_human DPYSL2 = dpyl2_human DPYSL2 (UniProt Q16555)
lonf1_human LONRF1 = molecular target: T2, lonf1_human LONRF1 (UniProt Q17RB8)
T2 sequence: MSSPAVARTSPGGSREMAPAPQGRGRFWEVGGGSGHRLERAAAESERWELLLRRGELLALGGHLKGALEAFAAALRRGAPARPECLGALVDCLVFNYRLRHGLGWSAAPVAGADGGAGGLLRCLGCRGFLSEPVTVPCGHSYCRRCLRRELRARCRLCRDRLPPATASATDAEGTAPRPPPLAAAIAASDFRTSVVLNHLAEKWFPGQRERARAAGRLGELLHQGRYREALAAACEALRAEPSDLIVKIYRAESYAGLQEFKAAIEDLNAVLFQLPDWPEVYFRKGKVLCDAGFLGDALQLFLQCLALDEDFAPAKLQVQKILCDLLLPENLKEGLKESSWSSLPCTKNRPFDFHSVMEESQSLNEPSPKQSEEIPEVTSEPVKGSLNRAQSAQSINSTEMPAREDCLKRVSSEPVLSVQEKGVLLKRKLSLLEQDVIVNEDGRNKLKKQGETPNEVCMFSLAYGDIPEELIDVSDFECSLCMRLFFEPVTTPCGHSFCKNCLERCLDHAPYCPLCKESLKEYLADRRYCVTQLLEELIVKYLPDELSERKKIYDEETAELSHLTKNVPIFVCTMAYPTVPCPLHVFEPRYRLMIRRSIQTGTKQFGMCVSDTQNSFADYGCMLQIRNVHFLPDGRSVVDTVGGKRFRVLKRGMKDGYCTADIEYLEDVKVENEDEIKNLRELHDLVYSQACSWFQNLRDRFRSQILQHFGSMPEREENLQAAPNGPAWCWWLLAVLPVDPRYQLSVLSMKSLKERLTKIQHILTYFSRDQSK

tle5_human TLE5 = molecular target: T3, tle5_human TLE5 (UniProt Q08117)
T3 sequence: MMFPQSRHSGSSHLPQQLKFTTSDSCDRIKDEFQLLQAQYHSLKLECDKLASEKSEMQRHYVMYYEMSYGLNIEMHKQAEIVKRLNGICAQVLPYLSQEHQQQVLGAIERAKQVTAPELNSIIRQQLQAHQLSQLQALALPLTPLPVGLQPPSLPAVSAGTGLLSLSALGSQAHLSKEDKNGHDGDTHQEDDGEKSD

zmat1_human ZMAT1 = zmat1_human ZMAT1 (UniProt Q5H9K5)
cryaa_human CRYAA = molecular target: T4, cryaa_human CRYAA (UniProt P02489)
T4 sequence: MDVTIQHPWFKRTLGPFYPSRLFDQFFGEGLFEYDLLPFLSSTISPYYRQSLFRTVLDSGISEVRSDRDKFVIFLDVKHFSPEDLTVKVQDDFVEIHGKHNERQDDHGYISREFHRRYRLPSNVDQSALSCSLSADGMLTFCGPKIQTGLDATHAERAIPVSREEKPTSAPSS

pde9a_human PDE9A = pde9a_human PDE9A (UniProt O76083)
Chain of pde9a_human PDE9A (O76083 whole entry): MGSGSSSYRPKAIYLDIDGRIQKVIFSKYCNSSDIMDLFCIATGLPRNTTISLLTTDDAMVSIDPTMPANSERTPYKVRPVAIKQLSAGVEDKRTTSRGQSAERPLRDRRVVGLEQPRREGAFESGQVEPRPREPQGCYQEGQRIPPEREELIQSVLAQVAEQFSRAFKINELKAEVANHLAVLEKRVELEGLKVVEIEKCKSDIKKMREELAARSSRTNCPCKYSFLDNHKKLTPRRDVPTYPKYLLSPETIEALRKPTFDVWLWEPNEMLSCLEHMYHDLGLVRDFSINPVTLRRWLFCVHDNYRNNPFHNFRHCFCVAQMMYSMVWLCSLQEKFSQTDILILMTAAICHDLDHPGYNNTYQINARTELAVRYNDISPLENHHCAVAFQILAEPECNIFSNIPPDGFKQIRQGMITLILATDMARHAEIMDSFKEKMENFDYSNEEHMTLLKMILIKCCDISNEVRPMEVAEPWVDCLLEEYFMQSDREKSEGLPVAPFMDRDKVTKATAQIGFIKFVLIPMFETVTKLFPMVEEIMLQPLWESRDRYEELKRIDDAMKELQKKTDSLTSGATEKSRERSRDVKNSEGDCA

Chain of ar6p1_human ARL6IP1 (Q15041 whole entry): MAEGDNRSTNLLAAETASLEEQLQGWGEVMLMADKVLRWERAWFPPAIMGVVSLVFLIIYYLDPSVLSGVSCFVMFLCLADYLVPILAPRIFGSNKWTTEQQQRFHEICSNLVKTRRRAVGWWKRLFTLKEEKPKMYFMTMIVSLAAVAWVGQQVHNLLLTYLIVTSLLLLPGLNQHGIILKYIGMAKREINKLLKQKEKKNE
Chain of txlna_human TXLNA (P40222 whole entry): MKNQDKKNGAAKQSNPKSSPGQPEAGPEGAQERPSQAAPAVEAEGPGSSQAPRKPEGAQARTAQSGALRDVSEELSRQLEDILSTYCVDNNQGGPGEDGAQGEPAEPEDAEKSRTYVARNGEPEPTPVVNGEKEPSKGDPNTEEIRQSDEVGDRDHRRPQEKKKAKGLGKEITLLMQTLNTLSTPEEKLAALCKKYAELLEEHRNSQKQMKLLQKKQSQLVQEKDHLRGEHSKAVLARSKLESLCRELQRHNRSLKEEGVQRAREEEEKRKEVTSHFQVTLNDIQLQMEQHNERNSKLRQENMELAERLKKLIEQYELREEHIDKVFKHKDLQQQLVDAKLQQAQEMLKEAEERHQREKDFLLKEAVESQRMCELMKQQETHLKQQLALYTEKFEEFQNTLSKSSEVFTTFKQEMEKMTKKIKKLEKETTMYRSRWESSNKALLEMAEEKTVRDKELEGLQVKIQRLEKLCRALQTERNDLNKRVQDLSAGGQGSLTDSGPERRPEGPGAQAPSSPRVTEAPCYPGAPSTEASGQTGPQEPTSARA
Chain of reep6_human REEP6 (Q96HR9 whole entry): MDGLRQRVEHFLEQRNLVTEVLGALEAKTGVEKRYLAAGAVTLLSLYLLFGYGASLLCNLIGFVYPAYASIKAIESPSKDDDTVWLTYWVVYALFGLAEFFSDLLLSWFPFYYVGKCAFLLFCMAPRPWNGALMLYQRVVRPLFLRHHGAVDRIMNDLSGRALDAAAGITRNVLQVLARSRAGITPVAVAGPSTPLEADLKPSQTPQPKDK
Chain of zmat1_human ZMAT1 (Q5H9K5 whole entry): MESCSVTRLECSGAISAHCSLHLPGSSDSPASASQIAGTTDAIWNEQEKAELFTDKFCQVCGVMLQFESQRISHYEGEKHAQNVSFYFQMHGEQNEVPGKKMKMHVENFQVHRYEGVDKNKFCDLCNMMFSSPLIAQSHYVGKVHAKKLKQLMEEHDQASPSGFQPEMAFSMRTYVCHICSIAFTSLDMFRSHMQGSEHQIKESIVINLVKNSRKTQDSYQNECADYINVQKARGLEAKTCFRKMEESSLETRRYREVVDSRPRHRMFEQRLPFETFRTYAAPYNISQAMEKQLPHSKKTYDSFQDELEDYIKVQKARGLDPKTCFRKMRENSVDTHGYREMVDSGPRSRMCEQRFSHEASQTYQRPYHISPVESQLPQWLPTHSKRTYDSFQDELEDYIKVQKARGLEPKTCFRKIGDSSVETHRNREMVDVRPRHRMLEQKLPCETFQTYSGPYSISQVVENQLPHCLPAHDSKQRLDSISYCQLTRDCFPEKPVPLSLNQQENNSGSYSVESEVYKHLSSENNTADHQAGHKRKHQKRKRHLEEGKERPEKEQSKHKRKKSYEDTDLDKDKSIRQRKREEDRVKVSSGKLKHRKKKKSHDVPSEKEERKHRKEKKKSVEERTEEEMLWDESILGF

effect of a mutation on the interaction (goga2_human GOLGA2): with no effect
effect of a mutation on the interaction (reep6_human REEP6): with no effect
effect of a mutation on the interaction (ar6p1_human ARL6IP1): with no effect
effect of a mutation on the interaction (txlna_human TXLNA): with no effect
effect of a mutation on the interaction (dpyl2_human DPYSL2): with no effect
effect of a mutation on the interaction (lonf1_human LONRF1): with no effect
effect of a mutation on the interaction (tle5_human TLE5): disrupting interaction strength
effect of a mutation on the interaction (zmat1_human ZMAT1): with no effect
effect of a mutation on the interaction (cryaa_human CRYAA): with no effect
effect of a mutation on the interaction (pde9a_human PDE9A): with no effect
Substance: Golgi reassembly-stacking protein 2 (Homo sapiens) (from UniProt Q9H8Y8) L320R
